Source: patent US20230071371A1 (Scripps Research, published 2023)
Read-outs that look alike come from different tables or passages of the source. Bridges are numbered along the chain shown (N, C = ends). Where no end group is shown, it is not given here. [ ]: non-standard residue; d: D form. hArg = N=C(N)NCCCC[C@H](N)C(=O)O; staple K4 = not defined here; staple K5 = not defined here; Nle = CCCC[C@H](N)C(=O)O; L12 = not defined here; L4A = not defined here; L5A = not defined here; K0 = not defined here; K4 = not defined here; K5 = not defined here; L1 = not defined here; L3 = not defined here; L4 = not defined here; L5 = not defined here; L6 = not defined here; L7 = not defined here; L8 = not defined here; L9 = not defined here; Aib = CC(C)(N)C(=O)O

What was measured:
Assay in all cases: cell-based or functional assay
human GLP-1R [1] = target: T1, human GLP-1R (human, UniProt P43220 24-463)
human GCGR = human GCGR (human, UniProt P47871 26-477)
Sequence of human GCGR (P47871 26-477): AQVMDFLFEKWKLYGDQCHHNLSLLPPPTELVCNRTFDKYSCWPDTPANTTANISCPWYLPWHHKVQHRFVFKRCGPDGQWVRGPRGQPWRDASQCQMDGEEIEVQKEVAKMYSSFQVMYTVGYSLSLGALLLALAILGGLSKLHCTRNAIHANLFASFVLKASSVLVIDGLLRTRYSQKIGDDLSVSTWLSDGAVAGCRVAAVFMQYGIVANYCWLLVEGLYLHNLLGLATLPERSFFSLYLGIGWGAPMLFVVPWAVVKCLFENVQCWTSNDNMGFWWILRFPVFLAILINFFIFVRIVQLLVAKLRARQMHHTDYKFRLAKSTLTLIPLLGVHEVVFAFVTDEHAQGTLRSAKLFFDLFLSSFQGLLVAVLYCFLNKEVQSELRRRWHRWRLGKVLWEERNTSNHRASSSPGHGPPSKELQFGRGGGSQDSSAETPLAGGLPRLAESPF

human GCGR (human) = human GCGR (human) (UniProt P47871)
Sequence of human GCGR (human) (P47871 26-477): as above

human GLP-1R (human) = human GLP-1R (human) (UniProt P43220)
Sequence of human GLP-1R (human) (P43220 24-463): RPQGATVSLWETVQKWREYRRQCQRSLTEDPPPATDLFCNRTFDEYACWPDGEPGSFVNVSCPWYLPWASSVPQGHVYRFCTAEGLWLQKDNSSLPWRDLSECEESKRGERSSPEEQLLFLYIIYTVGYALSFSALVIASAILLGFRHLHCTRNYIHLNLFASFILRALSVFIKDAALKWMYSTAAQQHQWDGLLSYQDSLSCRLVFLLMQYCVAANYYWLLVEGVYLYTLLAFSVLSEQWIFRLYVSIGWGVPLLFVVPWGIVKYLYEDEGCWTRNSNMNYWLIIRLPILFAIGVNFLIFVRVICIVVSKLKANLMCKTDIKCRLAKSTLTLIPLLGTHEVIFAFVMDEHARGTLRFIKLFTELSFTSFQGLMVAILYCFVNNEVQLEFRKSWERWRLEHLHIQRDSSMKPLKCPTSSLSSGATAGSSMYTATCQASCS

GPR10 [2] = target: T2, GPR10 (UniProt P49683 1-370, limits assumed)
T2 sequence (looked up): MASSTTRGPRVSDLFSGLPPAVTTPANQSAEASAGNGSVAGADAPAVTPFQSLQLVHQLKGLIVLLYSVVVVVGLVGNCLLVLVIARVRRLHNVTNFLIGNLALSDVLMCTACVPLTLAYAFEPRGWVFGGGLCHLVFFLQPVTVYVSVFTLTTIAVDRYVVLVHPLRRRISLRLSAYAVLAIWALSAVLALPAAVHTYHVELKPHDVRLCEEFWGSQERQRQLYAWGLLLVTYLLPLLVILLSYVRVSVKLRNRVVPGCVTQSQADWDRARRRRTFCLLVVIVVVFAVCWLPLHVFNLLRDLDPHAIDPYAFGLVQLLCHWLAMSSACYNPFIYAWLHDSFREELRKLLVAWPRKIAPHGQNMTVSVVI

GPR10 [3] = target: T2, GPR10; remark: listed apart in the source
human NPFF2R = human NPFF2R (human, UniProt Q9Y5X5 1-522)
Sequence of human NPFF2R (Q9Y5X5 whole entry): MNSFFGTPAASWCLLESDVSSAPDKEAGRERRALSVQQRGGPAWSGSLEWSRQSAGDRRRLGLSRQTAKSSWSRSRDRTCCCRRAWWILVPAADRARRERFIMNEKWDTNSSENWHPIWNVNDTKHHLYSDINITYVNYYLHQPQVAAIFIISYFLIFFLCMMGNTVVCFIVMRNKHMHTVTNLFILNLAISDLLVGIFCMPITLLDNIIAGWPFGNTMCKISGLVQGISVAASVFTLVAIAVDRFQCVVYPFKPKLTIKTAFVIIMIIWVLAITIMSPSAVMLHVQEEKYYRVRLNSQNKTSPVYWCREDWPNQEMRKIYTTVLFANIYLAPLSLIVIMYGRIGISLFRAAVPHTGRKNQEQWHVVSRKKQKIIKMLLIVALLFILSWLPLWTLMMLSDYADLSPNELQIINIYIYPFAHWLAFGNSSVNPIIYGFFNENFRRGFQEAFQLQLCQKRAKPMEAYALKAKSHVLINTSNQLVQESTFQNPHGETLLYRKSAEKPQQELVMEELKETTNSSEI

human GLP-1R [4] = target: T1, human GLP-1R; remark: listed apart in the source
human GIPR [5] = target: T3, human GIPR (human, UniProt P48546 22-466)
T3 sequence (looked up): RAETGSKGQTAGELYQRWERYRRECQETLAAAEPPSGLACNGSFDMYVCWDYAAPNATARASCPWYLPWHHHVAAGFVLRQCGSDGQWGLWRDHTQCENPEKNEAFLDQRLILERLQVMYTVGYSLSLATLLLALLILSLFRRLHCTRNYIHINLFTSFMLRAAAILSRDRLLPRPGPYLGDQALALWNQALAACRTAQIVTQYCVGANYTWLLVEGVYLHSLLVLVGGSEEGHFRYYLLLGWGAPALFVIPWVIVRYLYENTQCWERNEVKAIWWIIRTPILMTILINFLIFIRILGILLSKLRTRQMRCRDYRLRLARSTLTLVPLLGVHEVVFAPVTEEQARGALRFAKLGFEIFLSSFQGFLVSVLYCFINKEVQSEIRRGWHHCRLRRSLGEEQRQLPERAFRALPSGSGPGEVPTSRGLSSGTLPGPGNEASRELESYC

human GIPR [6] = target: T3, human GIPR; remark: listed apart in the source
human GLP-1R [7] = target: T1, human GLP-1R; remark: listed apart in the source

Binder	EC50 cAMP 0% FBS (human GLP-1R [1])	EC50 cAMP 0% FBS (human GCGR)	GPR10 EC50 0% FBS (GPR10 [3])	GPR10 EC50 10% FBS (GPR10 [3])	NPFF2R EC50 0% FBS (human NPFF2R)	NPFF2R EC50 10% FBS (human NPFF2R)	further results
H[dS]QGTFTSDYSKYLDEKAAKEFIKWLLNGGPSSGAPPPS (linker 17-24 via K5; ends not checked) [Conjugate 121]	1.36 nM	2.54 nM					
HXQGTFTSDYSKYLDSKKAQEFVKWLLNGPSSGAPPPS (staple K4 on Lys 17, 24; Aib 2) [Conjugate 127]	0.148 nM	0.009 nM					
H[dS]QGTFTSDYSKYLDECAAKEFICWLLNGGPSSGAPPPS (linker 17-24 via L4A; ends not checked) [Conjugate 135]							EC50 cAMP 0% FBS (human GCGR (human)): 0.0068 nM; EC50 cAMP 0% FBS (human GLP-1R (human)): 0.0075 nM
SRAHQCS[Nle]ETRTCDINPAWYTG[hArg]GIRPVGRF-NH2 (linker 6-13 via L1; reading uncertain) [Conjugate 251]			5.9 nM	10 nM	920 nM	1200 nM	GPR10 EC50 (GPR10 [2]): 10 nM
H[dS]QGTFTSDYSKYLDEKAAKEFIKWLLRA (linker 17-24 via K4; reading uncertain) [Conjugate 123]	2.37 nM	0.451 nM					
Y[Aib]EGTFTSDYSIYKDKQAA[Aib]KFVNWLLAGGPSSGAPPPS (linker 14-21 via staple K4; reading uncertain) [Conjugate 142]							EC50 Creluc (human GLP-1R [4]): 0.02 nM; EC50 Creluc (human GIPR [5]): 0.02 nM; EC50 cAMP 0% FBS (human GIPR [6]): 0.008 nM
YXEGTFTSDYSIYKDKQAAXKFVNWLLAGGPSSGAPPPS (staple K5 on Lys 14, 21; Aib 2, 20) [Conjugate 141]							EC50 Creluc (human GLP-1R [4]): 0.01 nM; EC50 Creluc (human GIPR [5]): 0.02 nM; EC50 cAMP 0% FBS (human GLP-1R [7]): 0.022 nM; EC50 cAMP 0% FBS (human GIPR [6]): 0.0048 nM
YXEGTFTSDYSIYKDKQAALKFVAWLLAGGPSSGAPPPS (staple K5 on Lys 14, 21; Aib 2; D-Ser 8, 11; Nle 20) [Conjugate 170]							EC50 Creluc (human GLP-1R [4]): 3.74 nM; EC50 Creluc (human GIPR [5]): 15.7 nM
YXEGTFHSDYDIYKDKQAALKFVAWLLAGGPSSGAPPPS (staple K4 on Lys 14, 21; Aib 2; Nle 20) [Conjugate 167]							EC50 Creluc (human GLP-1R [4]): 18.8 nM; EC50 Creluc (human GIPR [5]): 20.4 nM
YXEGTFHSDYDIYKDKQAALKFVAWLLAGGPSSGAPPPS (staple K5 on Lys 14, 21; Aib 2; Nle 20) [Conjugate 168]							EC50 Creluc (human GLP-1R [4]): > 1000 nM; EC50 Creluc (human GIPR [5]): 303 nM
YXEGTFTSDYSIYKDKQAALKFVAWLLAGGPSSGAPPPS (staple K4 on Lys 14, 21; Aib 2; D-Ser 8, 11; Nle 20) [Conjugate 169]							EC50 Creluc (human GLP-1R [4]): 1.32 nM; EC50 Creluc (human GIPR [5]): 11.3 nM
SRAHQCS[Nle]ETRTCDINPAWYTG[hArg]GIRPVGRF-NH2 (linker 6-13 via L7; reading uncertain) [Conjugate 271]			9 nM	39 nM	130 nM	140 nM	
SRAHQCS[Nle]ETRTCDINPAWYTG[hArg]GIRPVGRF-NH2 (linker 6-13 via L8; reading uncertain) [Conjugate 267]			24 nM	830 nM	560 nM	~10000 nM	
H[dS]QGTFTSDYSKYLDEKAAKEFIKWLLNGGPSSGAPPPS (linker 17-24 via K4; ends not checked) [Conjugate 122]	0.0037 nM	0.07 nM					
H[dS]QGTFTSDYSKYLDEKAAKEFIKWLLNGGPSSGAPPPS (linker 17-24 via K0; ends not checked) [Conjugate 124]	0.049 nM	0.319 nM					
Y[Aib]EGTFHSDYDIYKDKQAA[Aib]KFVQWLLAGGPSSGAPPPS (linker 14-21 via staple K4; reading uncertain) [Conjugate 165]							EC50 Creluc (human GLP-1R [4]): 13.8 nM; EC50 Creluc (human GIPR [5]): 5.31 nM
HXQGTFTSDYSKYLDEKAAKEFIKWLLNGRNRNNIA (staple K4 on Lys 17, 24; Aib 2) [Conjugate 125]	0.21 nM	0.626 nM					
HXQGTFTSDYSKYLDKKAAKEFKQWLLNGPSSGAPPPS (staple K4 on Lys 16, 23; Aib 2) [Conjugate 128]	6.64 nM	16.2 nM					
H[dS]QGTFTSDYSKYLDECAAKEFICWLLRA (linker 17-24 via L4A; reading uncertain) [Conjugate 136]	2.87 nM	0.559 nM					
Y[Aib]EGTFHSDYDIYKDKQAA[Aib]KFVQWLLAGGPSSGAPPPS (linker 14-21 via staple K5; reading uncertain) [Conjugate 166]							EC50 Creluc (human GLP-1R [4]): 83.9 nM; EC50 Creluc (human GIPR [5]): 12.6 nM
SRAHQCS[Nle]ETRTCDINPAWYTG[hArg]GIRPVGRF-NH2 (linker 6-13 via L12; reading uncertain) [Conjugate 269]			10 nM	120 nM	1600 nM	~8000 nM	
SRAHQCS[Nle]ETRTCDINPAWYTG[hArg]GIRPVGRF-NH2 (linker 6-13 via L3; reading uncertain) [Conjugate 255]			8 nM	9.1 nM	150 nM	220 nM	GPR10 EC50 (GPR10 [2]): 9.1 nM
SRAHQCS[Nle]ETRTCDINPAWYTG[hArg]GIRPVGRF-NH2 (linker 6-13 via L4; reading uncertain) [Conjugate 259]			12 nM	26 nM	470 nM	> 10000 nM	GPR10 EC50 (GPR10 [2]): 26 nM
H[dS]QGTFTSDYSKYLDECAAKEFICWLLNGGPSSGAPPPS (linker 17-24 via L5A; ends not checked) [Conjugate 138]							EC50 cAMP 0% FBS (human GCGR (human)): 1.42 nM; EC50 cAMP 0% FBS (human GLP-1R (human)): 0.908 nM
SRAHQCS[Nle]ETRTCDINPAWYTG[hArg]GIRPVGRF-NH2 (linker 6-13 via L6; reading uncertain) [Conjugate 270]			12 nM	42 nM	270 nM	310 nM	
H[dS]QGTFTSDYSKYLDECAAKEFICWLLRA (linker 17-24 via L5A; reading uncertain) [Conjugate 137]	2.02 nM	0.444 nM					
SRAHQCS[Nle]ETRTCDINPAWYTG[hArg]GIRPVGRF-NH2 (linker 6-13 via L9; reading uncertain) [Conjugate 268]			8.2 nM	120 nM	9000 nM	> 10000 nM	
SRAHQCS[Nle]ETRTCDINPAWYTG[hArg]GIRPVGRF-NH2 (linker 6-13 via L5; reading uncertain) [Conjugate 263]			7.8 nM	80 nM	520 nM	> 10000 nM	GPR10 EC50 (GPR10 [2]): 80 nM
HXQGTFTSDYSKYLDKKKAKEFKQWLLNXGRNRNNIA (staple K4 on Lys 16, 23; Aib 2, 29) [Conjugate 129]	31.1 nM	56 nM					
HXQGTFTSDYSKYLDSKKAKEFVKWLLNXGPSSGAPPPS (not fully specified; staple K4 on Lys 17, 24; Aib 2, 29) [Conjugate 126]		0.092 nM					
